Laboratory results from patent US20110212528A1.

Molecular target: GAL4/CfEcR-DEF (Choristoneura fumiferana)
Assay: cell-based or functional assay

| Substance | fold induction (maximum, reporter gene transactivation, NIH3T3 cells, GS-E) [fold] |
| --- | --- |
| VP16/HsRXRβ-EF substitution mutant A495S (receptor) | 30 |
| VP16/HsRXRβ-EF substitution mutant A528S (receptor) | 21 |
